In assay [1] the target is epitope-tagged neurokinin-1 receptor (NK1R) with three epitope tags (alfa, 6e, BC2) inserted into the extracellular N-terminus (UniProt P25103).
For assay [2] the target is unchanged. This is another data set of the same source.
Assay [3] has the same target. The source holds these as a separate data set.
Assay [4] has the same target. This is another data set of the same source.
Assay [5] addresses T1, neurokinin-1 receptor wild-type, lacking epitope tags (Homo sapiens, UniProt P25103).
T1 construct: also called NK1R WT; NK1R wild-type; source: HEK293, stably transfected clonal line, on live cells
Kind of assay: flow cytometry on cells; live HEK293 cells expressing the receptor, on ice 20 min in PBS with 2% BSA with biotin-functionalized nanobodies (0.1 pM – 1 μM); detected with APC-streptavidin; median fluorescence intensity. Particulars: one partner purified.

Ends that are not written are not given here.

T1 sequence (P25103 whole entry): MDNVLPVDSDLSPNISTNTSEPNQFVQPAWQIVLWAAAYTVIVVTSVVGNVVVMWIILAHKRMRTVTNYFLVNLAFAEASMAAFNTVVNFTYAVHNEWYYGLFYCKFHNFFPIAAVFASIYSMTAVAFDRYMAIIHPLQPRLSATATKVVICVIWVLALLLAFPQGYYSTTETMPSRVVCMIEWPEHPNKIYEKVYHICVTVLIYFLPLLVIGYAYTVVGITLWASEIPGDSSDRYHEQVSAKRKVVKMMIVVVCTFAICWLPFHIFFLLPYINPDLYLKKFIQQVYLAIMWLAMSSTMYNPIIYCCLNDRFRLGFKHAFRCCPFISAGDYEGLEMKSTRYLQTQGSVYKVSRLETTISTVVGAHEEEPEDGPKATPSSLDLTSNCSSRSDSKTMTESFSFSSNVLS

Regarding Nb_(alfa)-NKA conjugate, in assay [1], the Gq-mediated transcriptional output (luciferase reporter, 35 nM, 17 hours), fold against G3NKA is more than 2 fold. The molecule also came in with a Gs-mediated transcription (luciferase reporter, 35 nM, 17 hours), fold against NKA in assay [2] of more than 5 fold. Further, the Gq activation (TRUPATH BRET), full efficacy; reduction in potency (EC50) relative to the comparator peptide in assay [3] is less than 6 fold. Molecule NbGFP-NKA conjugate (negative control) showed a Gq activation (TRUPATH BRET), full efficacy; reduction in potency (EC50) relative to the comparator peptide in assay [3] of less than 6 fold. Take Nb_(alfa)-SP_(6–11) conjugate: in assay [3], the Gq activation (TRUPATH BRET), full efficacy; reduction in potency (EC50) relative to the comparator peptide G3SP (6–11) was more than 60 fold and the Gq activation (TRUPATH BRET); difference in EC50 relative to SP (6–11) was less than 4 fold. In assay [3], “NbGFP-SP_(6–11) conjugate (negative control)” registered a Gq activation (TRUPATH BRET), full efficacy; reduction in potency (EC50) relative to the comparator peptide G3SP (6–11) of more than 60 fold and a Gq activation (TRUPATH BRET); difference in EC50 relative to SP (6–11) of less than 4 fold. “SP_(6–11), truncated version of Substance P (peptide)” yielded a signaling through the Gq pathway (TRUPATH BRET), EC50 in assay [4] of 27.5 nM.

B1: NbBC2, biotin-labeled (VHH)
VHH: QVQLVESGGGLVQPGGSLTLSCTASGFTLDHYDIGWFRQAPGKEREGVSCINNSDDDTYYADSVKGRFTIFMNNAKDTVYLQMNSLKPEDTAIYYCAEARGCKRGRYEYDFWGQGTQVTVSS
notes: sortase A recognition motif at the C-terminus (LPETGG in the methods); if by sortagging, the His tag would be lost; source: E. coli BL21(DE3), purified (nickel-NTA, size exclusion chromatography)
As for B1, the binding result in assay [5] is on record as “no binding (tested: 1 μM)”.

B2: NbGFP, biotin-labeled (negative control nanobody that targets GFP) (VHH)
VHH: QVQLQESGGALVQPGGSLRLSCAASGFPVNRYSMRWYRQAPGKEREWVAGMSSAGDRSSYEDSVKGRFTISRDDARNTVYLQMNSLKPEDTAVYYCNVNVGFEYWGQGTQVTVSS
notes: nanobody NbGFP against GFP; sortase A recognition motif at the C-terminus (LPETGG in the methods); if by sortagging, the His tag would be lost; source: E. coli BL21(DE3), purified (nickel-NTA, size exclusion chromatography)
B2: the binding result in assay [5] was “no binding (tested: 1 μM)”.

B3: Nb6e, biotin-labeled (VHH)
VHH: QVQLQESGGGLVQPGGSLRLSCAASGFVFENSAMAWYRQAPGKERELIAVIGTTFIKLAESVKGRFTISRDNAKSTVYLQMNNLKPEDTAVYYCSKSGAYWGQGTQVTVSS
notes: as for B1
Regarding B3, the binding result in assay [5] was “no binding (tested: 1 μM)”.

B4: G3SP_(6–11), SP_(6–11) with an N-terminal triglycine extension (peptide)
peptide: GGGQFFGLM-NH2
Turning to B4, the signaling through the Gq pathway (TRUPATH BRET), EC50 in assay [4] was determined as 0.3 nM.

B5: Nb_(alfa), biotin-labeled (VHH)
VHH: EVQLQESGGGLVQPGGSLRLSCTASGVTISALNAMAMGWYRQAPGERRVMVAAVSERGNAMYRESVQGRFTVTRDFTNKMVSLQMDNLKPEDTAVYYCHVLEDRVDSFHDYWGQGTQVTVSS
notes: as for B1
For the molecule B5, in assay [5], the binding result is recorded as “no binding (tested: 1 μM)”.

The values above are taken from article doi:10.1101/2023.10.08.561411, “Semi-synthetic nanobody-ligand conjugates exhibit tunable signaling properties and enhanced transcriptional outputs at neurokinin receptor-1” (bioRxiv, 2023).
